The target in this test is RGNNV capsid protein (CP) of the virus (red-spotted grouper nervous necrosis virus (RGNNV)).

B1: His-EcCXCR4b recombinant protein (pET-32a-EcCXCR4b) (receptor)
chain: MSYYEHIVFDYDLNDTGSGSGSGDMGVDLQELCDMEHVITDELQQVFLPVVYALIFILGITGNGLVVIVLGCQRRSKCSLTDRYRLHLSAADLLFVLALPFWAVDAALADWRFGEVTCVGVNVIYTVNLYGSVLILAFISLDRYLAVVRATDTNTGELRQLLAHKLVYVGAWLPAGLLAVPDLIYARTQEGGEGATLCQRFYPADNGPIWVAVFHLQLVLVGLVIPGLVLLVCYCVIVTRLTRGPLGGQRQKRRAVRTTIALVLCFFVCWLPYGAGISVDALLRLEVLPRSCRLEAILGVWLAVAEPMAFAHCCLNPLLYAFLGAGFKSSARRALTLSRASSLKILPRRRPGASTTTESESSSLHSS
In the case of B1, the survival rate of groupers over 14 days after injection of RGNNV pre-incubated with His-EcCXCR4b protein (6× His control: 23.3%) worked out at 73.3%.

The record behind these values is article PMC12691606.
